Measured values reported in the nanobody polyreactivity screen of Harvey et al. (2022).

Test: yeast display, Sf9 membrane polyspecificity reagent, FACS + sequencing; frameworks hold sequencing errors
Outline: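 Genes from sorted yeast were amplified by colony PCR, read by MiSeq 2 × 250 sequencing and filtered on CDR length. These cells carried a synthetic nanobody library in Saccharomyces cerevisiae BJ5465 and were sorted by FACS into low and high (top ~1%) gates on anti-HA and streptavidin fluorescence. Polyreactivity is labelled according to the gate of origin.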

| Sequence | polyreactivity (PSR sort gate) |
| --- | --- |
| QVQLVESGGGLVHAGGSHRLSCAASGFTFTFYAMGWYRQAPVKERELVAAIRTSDGRTYYADSVKGRFTISRDNAKNTVYLQMNSLKPEDTAVYYCAAQVYRPRARYYEYDYWGQGTQVTVSS | high polyreactivity |
| QVQLVESGGGLVHAGGSHRLSCAASGSIFDVNAMGWYRPPRGKERELFAAITGTGGSTYYADSVKGRFTISRDNAKNSVYLQMYSLKPDDTSVYDCATVTGVRKYGYWGQGTQVTVSS | high polyreactivity |
| QVQLVESGGGLVHAGGSHRLSCAASGSIFPYYTMGWYRQAPGKEREMVAAISGSGTSTYYADSVKGRFTISRDNAKNTVYLQMNSLKPEDTAVYYCAADFRYYVTSLKYDYWGQGTQVTVSS | low polyreactivity |
| QVQLVESGGGLVHAGGSLLLSCAASGRTLGWYAMGWYIQAPGKERELVATISITGGSTYYAVSVKGRFTISRDYAKNTVYLQMNSLKPEDTAVYYCAARHGSRRRYYYWGQGTQVTVSS | high polyreactivity |
| QVQLVESGGGLVHAGGSLRISCAASGRIFYKYAMAWYRQAPGKERELVAAISTRGGSTYYADSVKWRFTISRDIAKNTVYSQMNSLKPEDTAVYYCAALSAYGYDYCGQGTQVTVSS | high polyreactivity |
| QVQLVESGGGLVHAGGSLRISCAASGRTFLPYTMGGYRQAHGSERELVADITTSDGSTYYADSVKGRFTISRDYAKNTVYLQMNSLKPEDTAVFYCAAESPWFWAVFDYWGQGTQVTVSS | high polyreactivity |
| QVQLVESGGGLVHAGGSLRISCAASGRTFQRNAMGWYRQAPGKERELVAAISGGGSTYYADSVKGRFTISRDNAKNTVYLQMNSLKPEDTAVYYCAASSATRLYYFSRGYDYWGQGTQVTVSS | low polyreactivity |
| QVQLVESGGGLVHAGGSLRLSCAASGFIFKFYAMGWYRQAPGKERELVAAISKSGGRTYYADSVKGRFTISRDNAKNTVYLQMNSLKPEDTAVYYCNAPSVGAAFDYWGQGTQVTVSS | high polyreactivity |
| QVQLVESGGGLVHAGGSLRLSCAASGFIFKRYTMGWYRQAPGKERELVATINWNGGNTYYADSVKGRFTISRDNAKNTVYLQMNSVKQDDTAVYYCAATRYVTYGSWGQGTQVTVSS | high polyreactivity |
| QVQLVESGGGLVHAGGSLRLSCAASGFIFSSYAMGWYRPAPGKERELVAAITSRGGSTYYADSVKGRYTISRDNAKNTVYLQMNSLKPEDTAVYYCAADQGVPSTYDYWGQGTQVTVSS | low polyreactivity |
| QVQLVESGGGLVHAGGSLRLSCAASGFIFSYNARGWYRQAPGKERELVASISRADSTNYADSVKGRFTISRDNAKNTVYLQMNSLKPEDTAVYYCAAAYWPVVWFYYWGQGTQVTVSS | low polyreactivity |
| QVQLVESGGGLVHAGGSLRLSCAASGFIFYQYAMGWYRQAPGQERELVAAISKSGGNTNYADSVKGRFTISRDNAKNTVYLQMNSLKPEDTAVYYCAADRGQRGLYYWGQGTQVTVSS | high polyreactivity |
| QVQLVESGGGLVHAGGSLRLSCAASGFILSANDMGWYRQAPGQERELVADIDSSGRTNYADSVKGRFTISRDNAKNTVYLQMISLKPEDTAVYYCATPPDDKGGGYLGFDYWGQGTQVTVSS | low polyreactivity |
| QVQLVESGGGLVHAGGSLRLSCAASGFTFPNYAMGWYRQAPGKERSLVAAITSGGGRTNYADSVKGRFTISRDNAKNTVYLQMISLKPEDTAVYYCAKTRVRGSEFGYWGQGTQVTVSS | low polyreactivity |
| QVQLVESGGGLVHAGGSLRLSCAASGFTFSFYAMGWYRQAPGKERELVATITGSGVRTYYADSVKGRFTISRDNAKNTVYLQMNSLKPEDTAVYYCNRQGFTHRGYYWGQGTQVTVSS | high polyreactivity |
| QVQLVESGGGLVHAGGSLRLSCAASGFTFTAYARGWYRQATGKERELVAAINWSGSRTYNADSVKGRFTISRDNAKNTVYLQMNSLKPEDSAVYYCNTATSKSSYRHYDYWGQGTLVTVSS | high polyreactivity |

| Sequence | polyreactivity (PSR sort gate) |
| --- | --- |
| QVQLVESGGGLVHAGGSLRLSCAASGFTFVFYVMGWYRQAPGQERELVAGISGRGASTYYADSVKGRFTISRDNAKNTVYLQMNSLIPEDTAVYYCNAVHWGGTYWGLDYWGQGTQVTVSS | low polyreactivity |
| QVQLVESGGGLVHAGGSLRLSCAASGFTFWYYTMGWYRQAPGKERELVAAITASGGNTYYADSVKGRFTISRDNAKNTVYLQMYSLKPEDTAVYYSNAVSLKFTRKYDYWGQGPQVTVSS | high polyreactivity |
| QVQLVESGGGLVHAGGSLRLSCAASGFTFYRNTMGWYRQAPGKERELVAAISTRAGSTYYADSVKGRFTISRDNAKNTVYLQMNSLKPEDTAVYYCAVLTYRGRFEYWGQGTQVTVSS | high polyreactivity |
| QVQLVESGGGLVHAGGSLRLSCAASGGIFAGNVMGWDRQAPGKERYLVAAIDGDGRTYYADSVKGRFTISRDNAKNTVYLQMYSQKPEDTAVYYCAADAGVRGQYDDIDEGNYWGLGTQVTVSS | low polyreactivity |
| QVQLVESGGGLVHAGGSLRLSCAASGGTFDVNAMGWYRQAPGKERELVATISGGGSTNYADSVNGRFTISRDNAKNSVYLQINSLKPEDTAVYYCAAESEPIRNRERDYWGQGTQVSVSS | low polyreactivity |
| QVQLVESGGGLVHAGGSLRLSCAASGGTFGYYAMGWYRQAPGQERDLVAAISGSGGSTYYADSVKGRYTISRDHAKNTFYFQMNSLKPEDTAVYYCNAYIFGEVPNNYYWGQGTQVTVSS | high polyreactivity |
| QVQLVESGGGLVHAGGSLRLSCAASGIILSDNSMGWYRQAPGKEREVVAAITGSGGSTYYADSVKGRFTISRDNAKNTVYLQMNSLKPEDTAVYYCAADGPYGYYYGHYGYWGQGTQVTVSS | low polyreactivity |
| QVQLVESGGGLVHAGGSLRLSCAASGITLVRYAMGWYRQAPGKERELVAAISSSGGSTYYADSVKGRFTISRDNAKNTVYLQMNSLKPEDTAVYYCNAYVHSRRVEFNYWGQGTQVTVSS | high polyreactivity |
| QVQLVESGGGLVHAGGSLRLSCAASGITSSQNAMGWYRQAPGKERELVAAISWRGGSTYYADSVKGRFTISRDNAKNNVYLQMNSLKAEDTAVYYCNVVKRSLRYDYWGQCTQVTVSS | high polyreactivity |
| QVQLVESGGGLVHAGGSLRLSCAASGITYQAYAMGWYRQAPGKEREMVAAINDSGSSTYYADSVKGRFTISRDNAKNTVYLQMNSLKPEDTAVYYCAAYLWFWGQGTQVTVSS | low polyreactivity |
| QVQLVESGGGLVHAGGSLRLSCAASGLIFRGYAMGWYRQAPGKERELVAAISKSGGSTYYADSVKGRFTISRDNAKNTVYLQLNSLKPEDTAVYYCITDYVWKYFLSSQYDYWGQGTQVTVSS | high polyreactivity |
| QVQLVESGGGLVHAGGSLRLSCAASGLTFYRYAMGWYRQAPGKERELVAAIRSNVVTTYYADSVKGRFTISRDNAKNTVYLQMNSLKPEDTAVYYCAARFGRSAQPGYDYWGQGTQVTVSS | high polyreactivity |
| QVQLVESGGGLVHAGGSLRLSCAASGNIPPGNAMGWYRQAPGKERELVAAITASDGSTYYADSEKGRFTISRDHDKNTVYLQMNSLKPEDTAVYYCAKEQVYTYYLEYEYWGQGTQVTVSS | high polyreactivity |
| QVQLVESGGGLVHAGGSLRLSCAASGRIFATNVMGWYRQAPGKETEMVAAISRSGASTYYADSVKGRFTISRDNAKTSVYLQMNSLKPEDTAGYYCADRRFYYGDRYDYWGQGTQVTVSS | high polyreactivity |
| QVQLVESGGGLVHAGGSLRLSCAASGRIFSYYTMGWYRQAPGKERELVAAITASDGDTYYADSVKGRFTISRDNAMNTVYLQMNSLKPEDTAVYYCAADFWYYHTRMDYWGKGTQVTVSS | low polyreactivity |
| QVQLVESGGGLVHAGGSLRLSCAASGRIFVRYAMGWYRQAPGKERELVAAISSSGSSTYYADSVKGRFTISRDNAKNTVYLQMNSLKPEETAVYYCAAASVRYPRYEYWGQGTQVTVSS | high polyreactivity |
